Test results reported in patent US20210246210A1 (JIANGSU ALPHAMAB BIOPHARMACEUTICALS, published 2021).

Experiments:
human PD-L1 (WT) = human PD-L1 (WT) (human, UniProt Q9NZQ7 19-238, limits assumed); test: method not stated; PD-L1 ISVD-9 on human PD-L1 WT
PD-L1-muFc = target: T1, PD-L1-muFc (human); test: ELISA, PD-L1-muFc coated, anti-human Fc-HRP detection (FIG. 2, Panel B)
T1 construct: also called soluble human PD-L1
Experimental: (§1) A 96-well plate was coated with PD-L1-muFc (human PD-L1 extracellular domain fused to N-terminus of mouse Fc, its amino acid sequence is as set forth in SEQ ID NO: 53). Various concentrations of the samples as well as control molecules were added. HRP labeled goat anti-human Fc antibody was used for detection. After being developed with TMB, the plate was read at a wavelength of 450/650 nm in a microplate reader.

CTLA4-muFc = target: T2, CTLA4-muFc (human); test: ELISA, CTLA4-muFc coated, anti-human Fc-HRP detection (FIG. 2, Panel C)
T2 construct: also called soluble human CTLA4
T2 sequence (chain, as listed by the source limits assumed): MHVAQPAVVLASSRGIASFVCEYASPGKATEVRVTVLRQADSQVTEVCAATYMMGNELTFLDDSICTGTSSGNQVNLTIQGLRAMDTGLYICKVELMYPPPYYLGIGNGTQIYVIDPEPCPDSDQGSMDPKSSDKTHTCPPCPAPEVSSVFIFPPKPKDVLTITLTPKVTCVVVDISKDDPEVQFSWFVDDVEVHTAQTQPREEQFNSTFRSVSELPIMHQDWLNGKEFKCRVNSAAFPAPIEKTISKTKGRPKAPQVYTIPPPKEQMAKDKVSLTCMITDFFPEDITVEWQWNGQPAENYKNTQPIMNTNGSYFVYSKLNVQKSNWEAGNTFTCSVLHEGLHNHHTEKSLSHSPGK
Experimental: as §1, with “CTLA4-muFc” for “PD-L1-muFc”, “CTLA4” for “PD-L1”, “to the” for “to”, “52).” for “53).”

Chain of human PD-L1 (WT) (Q9NZQ7 19-238 limits assumed): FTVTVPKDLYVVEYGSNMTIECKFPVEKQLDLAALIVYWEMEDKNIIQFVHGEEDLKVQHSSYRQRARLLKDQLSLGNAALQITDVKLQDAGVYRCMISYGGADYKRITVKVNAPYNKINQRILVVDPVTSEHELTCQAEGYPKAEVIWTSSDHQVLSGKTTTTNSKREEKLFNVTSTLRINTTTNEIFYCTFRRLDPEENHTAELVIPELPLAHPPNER
T1 sequence (chain, as listed by the source limits assumed): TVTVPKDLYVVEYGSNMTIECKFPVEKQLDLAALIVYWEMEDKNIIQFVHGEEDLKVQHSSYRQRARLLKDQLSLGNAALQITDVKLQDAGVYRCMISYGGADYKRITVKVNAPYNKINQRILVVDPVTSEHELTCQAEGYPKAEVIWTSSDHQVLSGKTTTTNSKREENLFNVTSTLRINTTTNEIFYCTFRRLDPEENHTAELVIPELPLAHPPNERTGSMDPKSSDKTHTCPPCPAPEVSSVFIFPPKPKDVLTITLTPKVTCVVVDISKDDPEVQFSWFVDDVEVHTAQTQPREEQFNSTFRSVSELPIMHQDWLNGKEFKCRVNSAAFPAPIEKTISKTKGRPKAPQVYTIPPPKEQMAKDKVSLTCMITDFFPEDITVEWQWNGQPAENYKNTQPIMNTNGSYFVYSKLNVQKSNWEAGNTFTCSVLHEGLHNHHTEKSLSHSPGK

B1: PD-L1 ISVD-9 (VHH)
VHH: QVQLVESGGGLVQPGGSLRLSCAASGKMSSRRCMAWFRQAPGKERERVAKLLTTSGSTYLADSVKGRFTISRDNSKNTVYLQMNSLRAEDTAVYYCAADSFEDPTCTLVTSSGAFQYWGQGTLVTVSS
notes: also called aPDL1.9; humanized variant of PD-L1 ISVD-4
With B1 the Kd (human PD-L1 (WT)) was 5.92 nM.

B2: durvalumab (antibody, V domains shown)
VH: EVQLVESGGGLVQPGGSLRLSCAASGFTFSRYWMSWVRQAPGKGLEWVANIKQDGSEKYYVDSVKGRFTISRDNAKNSLYLQMNSLRAEDTAVYYCAREGGWFGELAFDYWGQGTLVTVSS
VL: EIVLTQSPGTLSLSPGERATLSCRASQRVSSSYLAWYQQKPGQAPRLLIYDASSRATGIPDRFSGSGSGTDFTLTISRLEPEDFAVYYCQQYGSLPWTFGQGTKVEIK
For B2, the EC50 (PD-L1-muFc) was about 0.6 nM.

B3: ipilimumab (antibody, V domains shown)
VH: QVQLVESGGGVVQPGRSLRLSCAASGFTFSSYTMHWVRQAPGKGLEWVTFISYDGNNKYYADSVKGRFTISRDNSKNTLYLQMNSLRAEDTAIYYCARTGWLGPFDYWGQGTLVTVSS
VL: not shown
With B3 the EC50 (CTLA4-muFc) was about 0.5 nM.
